Data as given in patent US20110112012A1 (UNIVERSITY OF GEORGIA STUDIES RESEARCH FOUNDATION, published 2011).

Target: T1, Cry4Ba toxin (Cry4BRA mutant, R203 replaced by A) of Bacillus thuringiensis israelensis (Bacillus thuringiensis israelensis, UniProt P05519 51-641)
T1 construct: domain: ~66 kDa toxin mosquitocidal fragment; also called labeled Cry4Ba
T1 sequence: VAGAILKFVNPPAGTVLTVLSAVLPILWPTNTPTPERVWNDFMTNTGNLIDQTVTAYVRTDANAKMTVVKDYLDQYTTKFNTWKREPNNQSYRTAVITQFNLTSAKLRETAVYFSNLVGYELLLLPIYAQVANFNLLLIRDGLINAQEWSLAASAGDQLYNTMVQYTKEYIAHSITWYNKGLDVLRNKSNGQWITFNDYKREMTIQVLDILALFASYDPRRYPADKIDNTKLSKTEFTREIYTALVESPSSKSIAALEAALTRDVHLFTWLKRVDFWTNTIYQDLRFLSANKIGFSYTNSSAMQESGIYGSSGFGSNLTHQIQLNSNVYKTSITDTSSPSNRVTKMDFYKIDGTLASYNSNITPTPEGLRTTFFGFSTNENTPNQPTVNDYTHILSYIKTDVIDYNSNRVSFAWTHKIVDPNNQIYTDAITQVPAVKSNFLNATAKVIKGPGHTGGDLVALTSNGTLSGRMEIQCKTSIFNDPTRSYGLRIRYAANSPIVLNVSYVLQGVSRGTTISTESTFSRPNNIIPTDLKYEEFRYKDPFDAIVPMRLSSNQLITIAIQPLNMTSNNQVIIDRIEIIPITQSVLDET
Assay: microplate ELISA, Cry4Ba coated, biotinylated fragment titrated, one site saturation fit

B1: CR9-11 fragment of AgCad1, expressed in E. coli (peptide)
chain: GSPLPKFEAIDDDGGIYGDVTFSLTSTNDGEQDHEVFRVDKVDNKTGLLVLENSLAVQPFPKNYSITVIARDGGDRQSEAAIHVVFINMTGEPAFLEPTFDTDFTENEEGRDERRQLPFAEDPKNAGLPPGAETNVYYFIDKTYGNASHLFQLDRVSNVLQLAQLLDREEIPTPEIRIVATNNENSPPDTVLESSPSLLVVRIKVNDVNDNPPVFQQRLYAAGITTNDRVPKALFRVYAEDPDEDEIIRYELVNGTAVGENLQTDGLPFRLHPDSGELTLTSKVQPNQNGYYQLTLIAFDRDDTHNDTVPAKVYIVSESNRVTFVF
notes: Biotinylated for the microplate assay; also called AgCad CR9-11; AgCad-CR9-11
With B1 the Kd was 173 nM.

B2: CR11-MPED peptide of AgCad1 (amino acids 1358G to 1569A), expressed in E. coli (peptide)
chain: GITTNDRVPKALFRVYAEDPDEDEIIRYELVNGTAVGENLQTDGLPFRLHPDSGELTLTSKVQPNQNGYYQLTLIAFDRDDTHNDTVPAKVYIVSESNRVTFVFLNSVEEIDQPDVRKFLAQELTGAYEMECNIDDIDQTTASDGRQAGGSSSALTDVRTHFIQDNQAVEASRIQQRSSNRTFVTVLKTTLRTRGLSLQDVPPLATEALTEA
notes: Biotinylated with sulfo-NHS-PC-biotin for the microplate assay; also called AgCad CR11-MPED; AgCad-CR11-MPED
For B2, the Kd was 393 nM.
